Patent US20260242735A1 (UNIVERSIT T BASEL, published 2026)

B1: Refmab #2 (antibody, human IgG1, V domains shown)
VH: QVQLVQSGAEVKKPGSSVKVSCKASGGTFSDYAISWVRQAPGQGLEWMGRIIPILGVADYAQKFQGRVTITADKSTRTAYMELSSLRSEDTAVYYCARNWADAFDIWGQGTMVTVSS
VL: DIQLTQSPSSLSASVGDRVTITCRASQGISSVLAWYQQKPGKAPKLLIYDASSLESGVPSRFSGSGSGTDFTLTISSLQPEDFATYYCQQFDSSITFGQGTKLEIK
notes: Tested in IgG format; human IgG1 Fc silent (PG-LALA)
B2: Refmab #1 (antibody, human IgG1, V domains shown)
VH: EVQLVQSGAEVKKPGSSVKVSCKASGYTITDSNIHWVRQAPGQSLEWIGYIYPYNGGTDYNQKFKNRATLTVDNPTNTAYMELSSLRSEDTAFYYCVNGNPWLAYWGQGTLVTVSS
VL: DIQLTQSPSTLSASVGDRVTITCRASESLDNYGIRFLTWFQQKPGKAPKLLMYAASNQGSGVPSRFSGSGSGTEFTLTISSLQPDDFATYYCQQTKEVPWSFGQGTKVEVK
notes: Tested in IgG format; human IgG1 (Absolute Antibody hP67.6, Cat. No. Ab00283-10.0); also called hP67.6
B3: Refmab #3 (antibody, human IgG1, V domains shown)
VH: QVQLVQSGAEVKKPGSSVKVSCKASGYTFTDYNMHWVRQAPGQGLEWIGYIYPYNGGTGYNQKFKSKATITADESTNTAYMELSSLRSEDTAVYYCARGRPAMDYWGQGTLVTVSS
VL: DIQMTQSPSSLSASVGDRVTITCRASESVDNYGISFMNWFQQKPGKAPKLLIYAASNQGSGVPSRFSGSGSGTDFTLTISSLQPDDFATYYCQQSKEVPWTFGQGTKVEIK
notes: as for B1

Legend:
Assay in all cases: flow cytometry, mutant on cells, IgG
human CD33 P19K = human CD33 P19K (human, UniProt P20138 18-364)
Experimental: (§1) An alanine scan on human CD33 was performed to the determine the residues on CD33 that are involved in binding to the antibodies investigated. […] Briefly, a mutation library of CD33 was created by high-throughput, site-directed mutagenesis. Each residue was individually mutated to alanine, with alanine codons mutated to serine. The mutant library was arrayed in 384-well microplates and transiently transfected into HEK293-T. Following transfection, cells were incubated with the indicated antibodies (IgG or Fab) at concentrations pre-determined using an independent immunofluorescence titration curve on wild type CD33. […] Binding of each antibody to each mutant clone was determined in duplicates. For each point, background fluorescence was subtracted from the raw data, which were then normalized to antibody reactivity with wild type CD33.
(§2) Antibodies were screened for binding to the human CD33 variants in IgG format. […] For each mutation, background fluorescence was subtracted from the raw data, which were then normalized to antibody reactivity with wild-type CD33.

human CD33 N20Y = human CD33 N20Y (human, UniProt P20138 18-364)
Experimental: as §1, §2

human CD33 N20Q = human CD33 N20Q (human, UniProt P20138 18-364)
Experimental: as §1, §2

human CD33 N20D = human CD33 N20D (human, UniProt P20138 18-364)
Experimental: as §1, §2

human CD33 F21V = human CD33 F21V (human, UniProt P20138 18-364)
Experimental: as §1, §2

human CD33 F21H = human CD33 F21H (human, UniProt P20138 18-364)
Experimental: as §1, §2

human CD33 W22G = human CD33 W22G (human, UniProt P20138 18-364)
Experimental: as §1, §2

human CD33 W22S = human CD33 W22S (human, UniProt P20138 18-364)
Experimental: as §1, §2

human CD33 W22L = human CD33 W22L (human, UniProt P20138 18-364)
Experimental: as §1, §2

human CD33 W22P = human CD33 W22P (human, UniProt P20138 18-364)
Sequence of human CD33 W22P (P20138 18-364 W22P limits assumed): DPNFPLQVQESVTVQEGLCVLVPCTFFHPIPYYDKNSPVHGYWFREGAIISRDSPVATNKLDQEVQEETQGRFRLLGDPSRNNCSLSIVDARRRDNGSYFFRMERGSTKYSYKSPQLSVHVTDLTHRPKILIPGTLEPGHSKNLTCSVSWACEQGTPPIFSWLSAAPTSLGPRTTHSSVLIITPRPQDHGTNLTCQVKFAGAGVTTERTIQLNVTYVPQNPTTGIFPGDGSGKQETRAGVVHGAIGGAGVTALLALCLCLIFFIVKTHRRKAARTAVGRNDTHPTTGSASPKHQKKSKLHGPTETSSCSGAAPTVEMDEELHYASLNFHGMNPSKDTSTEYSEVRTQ
Experimental: as §1, §2

human CD33 W22Y = human CD33 W22Y (human, UniProt P20138 18-364)
Experimental: as §1, §2

human CD33 W22N = human CD33 W22N (human, UniProt P20138 18-364)
Experimental: as §1, §2

human CD33 W22Q = human CD33 W22Q (human, UniProt P20138 18-364)
Sequence of human CD33 W22Q (P20138 18-364 W22Q limits assumed): as the sequence (P20138 18-364 W22P limits assumed) above, with P5Q counted along it
Experimental: as §1, §2

human CD33 W22E = human CD33 W22E (human, UniProt P20138 18-364)
Sequence of human CD33 W22E (P20138 18-364 W22E limits assumed): as the sequence (P20138 18-364 W22P limits assumed) above, with P5E counted along it
Experimental: as §1, §2

human CD33 Q24V = human CD33 Q24V (human, UniProt P20138 18-364)
Sequence of human CD33 Q24V (P20138 18-364 Q24V limits assumed): as the sequence (P20138 18-364 W22P limits assumed) above, with P5W, Q7V counted along it
Experimental: as §1, §2

human CD33 Q24I = human CD33 Q24I (human, UniProt P20138 18-364)
Sequence of human CD33 Q24I (P20138 18-364 Q24I limits assumed): as the sequence (P20138 18-364 W22P limits assumed) above, with P5W, Q7I counted along it
Experimental: as §1, §2

human CD33 Q24H = human CD33 Q24H (human, UniProt P20138 18-364)
Experimental: as §1, §2

human CD33 Q24E = human CD33 Q24E (human, UniProt P20138 18-364)
Experimental: as §1, §2

human CD33 V25I = human CD33 V25I (human, UniProt P20138 18-364)
Sequence of human CD33 V25I (P20138 18-364 V25I limits assumed): as the sequence (P20138 18-364 W22P limits assumed) above, with P5W, V8I counted along it
Experimental: as §1, §2

human CD33 V25L = human CD33 V25L (human, UniProt P20138 18-364)
Sequence of human CD33 V25L (P20138 18-364 V25L limits assumed): as the sequence (P20138 18-364 W22P limits assumed) above, with P5W, V8L counted along it
Experimental: as §1, §2

human CD33 V25M = human CD33 V25M (human, UniProt P20138 18-364)
Sequence of human CD33 V25M (P20138 18-364 V25M limits assumed): as the sequence (P20138 18-364 W22P limits assumed) above, with P5W, V8M counted along it
Experimental: as §1, §2

human CD33 T42N = human CD33 T42N (human, UniProt P20138 18-364)
Experimental: as §1, §2

human CD33 F43L = human CD33 F43L (human, UniProt P20138 18-364)
Experimental: as §1, §2

human CD33 F44V = human CD33 F44V (human, UniProt P20138 18-364)
Experimental: as §1, §2

human CD33 D18R = human CD33 D18R (human, UniProt P20138 19-364)
Sequence of human CD33 D18R (P20138 18-364 D18R limits assumed): as the sequence (P20138 18-364 W22P limits assumed) above, with D1R, P5W counted along it
Experimental: as §1, §2

human CD33 F44I = human CD33 F44I (human, UniProt P20138 18-364)
Sequence of human CD33 F44I (P20138 18-364 F44I limits assumed): as the sequence (P20138 18-364 W22P limits assumed) above, with P5W, F27I counted along it
Experimental: as §1, §2

human CD33 F44H = human CD33 F44H (human, UniProt P20138 18-364)
Sequence of human CD33 F44H (P20138 18-364 F44H limits assumed): as the sequence (P20138 18-364 W22P limits assumed) above, with P5W, F27H counted along it
Experimental: as §1, §2

human CD33 F44E = human CD33 F44E (human, UniProt P20138 18-364)
Experimental: as §1, §2

human CD33 H45Y = human CD33 H45Y (human, UniProt P20138 18-364)
Sequence of human CD33 H45Y (P20138 18-364 H45Y limits assumed): as the sequence (P20138 18-364 W22P limits assumed) above, with P5W, H28Y counted along it
Experimental: as §1, §2

human CD33 P46S = human CD33 P46S (human, UniProt P20138 18-364)
Experimental: as §1, §2

human CD33 P46Y = human CD33 P46Y (human, UniProt P20138 18-364)
Sequence of human CD33 P46Y (P20138 18-364 P46Y limits assumed): as the sequence (P20138 18-364 W22P limits assumed) above, with P5W, P29Y counted along it
Experimental: as §1, §2

human CD33 P46H = human CD33 P46H (human, UniProt P20138 18-364)
Experimental: as §1, §2

human CD33 P46D = human CD33 P46D (human, UniProt P20138 18-364)
Sequence of human CD33 P46D (P20138 18-364 P46D limits assumed): as the sequence (P20138 18-364 W22P limits assumed) above, with P5W, P29D counted along it
Experimental: as §1, §2

human CD33 I47G = human CD33 I47G (human, UniProt P20138 18-364)
Experimental: as §1, §2

human CD33 I47S = human CD33 I47S (human, UniProt P20138 18-364)
Experimental: as §1, §2

human CD33 I47T = human CD33 I47T (human, UniProt P20138 18-364)
Experimental: as §1, §2

human CD33 F44L = human CD33 F44L (human, UniProt P20138 18-364)
Experimental: as §1, §2

Binder | Mean % WT Binding (human CD33 P19K) [% WT binding] | Mean % WT Binding (human CD33 N20Y) [% WT binding] | Mean % WT Binding (human CD33 N20Q) [% WT binding] | Mean % WT Binding (human CD33 N20D) [% WT binding] | Mean % WT Binding (human CD33 F21V) [% WT binding] | Mean % WT Binding (human CD33 F21H) [% WT binding] | Mean % WT Binding (human CD33 W22G) [% WT binding] | Mean % WT Binding (human CD33 W22S) [% WT binding] | Mean % WT Binding (human CD33 W22L) [% WT binding] | Mean % WT Binding (human CD33 W22P) [% WT binding] | Mean % WT Binding (human CD33 W22Y) [% WT binding] | Mean % WT Binding (human CD33 W22N) [% WT binding] | Mean % WT Binding (human CD33 W22Q) [% WT binding] | Mean % WT Binding (human CD33 W22E) [% WT binding] | Mean % WT Binding (human CD33 Q24V) [% WT binding] | Mean % WT Binding (human CD33 Q24I) [% WT binding] | Mean % WT Binding (human CD33 Q24H) [% WT binding] | Mean % WT Binding (human CD33 Q24E) [% WT binding] | Mean % WT Binding (human CD33 V25I) [% WT binding] | Mean % WT Binding (human CD33 V25L) [% WT binding] | other results
B1 | 115 | 34.7 | 125 | 109 | 117 | 117 | 113 | 105 | 110 | 136 | 107 | 107 | 108 | 107 | 99.3 | 96.8 | 101 | 63.7 | 114 | 109 | Mean % WT Binding (human CD33 V25M): 83 % WT binding; Mean % WT Binding (human CD33 T42N): 98.2 % WT binding; Mean % WT Binding (human CD33 F43L): 45.8 % WT binding; Mean % WT Binding (human CD33 F44V): 2.3 % WT binding; Mean % WT Binding (human CD33 D18R): 96.5 % WT binding; Mean % WT Binding (human CD33 F44I): 0.4 % WT binding; Mean % WT Binding (human CD33 F44H): 0.4 % WT binding; Mean % WT Binding (human CD33 F44E): 1.7 % WT binding; Mean % WT Binding (human CD33 H45Y): 80.7 % WT binding; Mean % WT Binding (human CD33 P46S): 102 % WT binding; Mean % WT Binding (human CD33 P46Y): 60.1 % WT binding; Mean % WT Binding (human CD33 P46H): 95.1 % WT binding; Mean % WT Binding (human CD33 P46D): 100 % WT binding; Mean % WT Binding (human CD33 I47G): 3.7 % WT binding; Mean % WT Binding (human CD33 I47S): 3.4 % WT binding; Mean % WT Binding (human CD33 I47T): 1.8 % WT binding
B2 | 5.5 | 0.4 | 2.8 | 0.7 | 1.5 | 20.6 | 89.6 | 74.3 | 45.8 | 2.7 | 98 | 76.5 | 99.5 | 5 | 92.6 | 80 | 95.3 | 17.1 | 113 | 99.2 | Mean % WT Binding (human CD33 V25M): 97.3 % WT binding; Mean % WT Binding (human CD33 T42N): 99.4 % WT binding; Mean % WT Binding (human CD33 F43L): 111 % WT binding; Mean % WT Binding (human CD33 F44V): 99.5 % WT binding; Mean % WT Binding (human CD33 D18R): 60.6 % WT binding; Mean % WT Binding (human CD33 F44I): 100 % WT binding; Mean % WT Binding (human CD33 F44L): 112 % WT binding; Mean % WT Binding (human CD33 F44H): 97.6 % WT binding; Mean % WT Binding (human CD33 F44E): 92.7 % WT binding; Mean % WT Binding (human CD33 H45Y): 80.3 % WT binding; Mean % WT Binding (human CD33 P46S): 21.4 % WT binding; Mean % WT Binding (human CD33 P46Y): 0.9 % WT binding; Mean % WT Binding (human CD33 P46H): 0.7 % WT binding; Mean % WT Binding (human CD33 P46D): 0.6 % WT binding; Mean % WT Binding (human CD33 I47G): 105 % WT binding; Mean % WT Binding (human CD33 I47S): 105 % WT binding; Mean % WT Binding (human CD33 I47T): 97.2 % WT binding
B3 | 1.8 | 0.6 | 3.4 | 4.6 | 0.7 | 1.4 | 9 | 1.4 | 1.5 | 0.5 | 11.5 | 3.5 | 12.5 | 1.4 | 24.5 | 61.3 | 7.1 | 0.8 | 113 | 97.8 | Mean % WT Binding (human CD33 V25M): 90.4 % WT binding; Mean % WT Binding (human CD33 T42N): 95.5 % WT binding; Mean % WT Binding (human CD33 F43L): 111 % WT binding; Mean % WT Binding (human CD33 F44V): 101 % WT binding; Mean % WT Binding (human CD33 D18R): 5.3 % WT binding; Mean % WT Binding (human CD33 F44I): 101 % WT binding; Mean % WT Binding (human CD33 F44L): 80 % WT binding; Mean % WT Binding (human CD33 F44H): 91.2 % WT binding; Mean % WT Binding (human CD33 F44E): 33.3 % WT binding; Mean % WT Binding (human CD33 H45Y): 4 % WT binding; Mean % WT Binding (human CD33 P46S): 3.5 % WT binding; Mean % WT Binding (human CD33 P46Y): 0.8 % WT binding; Mean % WT Binding (human CD33 P46H): 0.5 % WT binding; Mean % WT Binding (human CD33 P46D): 0.6 % WT binding; Mean % WT Binding (human CD33 I47G): 107 % WT binding; Mean % WT Binding (human CD33 I47S): 94.9 % WT binding; Mean % WT Binding (human CD33 I47T): 72.4 % WT binding
